“Also recorded” adds a separate entry of the source.
Legend:
PCSK9 [1] = target: T1, PCSK9 (Homo sapiens, UniProt Q8NBP7); assay: Aggregate data of the studies of Examples 22-25; type: in vivo
T1 construct: endogenous in cells; host or cells: human subjects, in vivo

PCSK9 [2] = assay: Serum lipids after a single subcutaneous dose in cynomolgus monkeys; type: in vivo, cynomolgus monkey; details: 0.5 mg/kg single SC
From the text: Briefly, naive male cynomolgus monkeys were acclimated to their environment for at least 2 weeks prior to experimentation. Animals were randomized into treatment groups based on a pre-screen of their serum TC, HDL-C, LDL-C, and triglyceride levels, and their body weight. After 1 week, animals were fasted overnight, and bled from the peripheral vasculature (cephalic or saphenous vein), for measurement of baseline serum lipid levels at a time point designated T=0. […] Fasting blood samples were then collected from animals at designated time points over a 45 day period.
At specified time points, blood was collected from animals under overnight fasting conditions from the peripheral vasculature (cephalic or saphenous vein). Whole blood was allowed to coagulate for 30 minutes at room temperature. Following centrifugation at 3,000 rpm for 20 minutes, serum was collected. Direct serum cholesterol analysis was performed using the Cobas Integra 400 analyzer (Roche Diagnostics Inc, Indianapolis, Ind.). Apolipoprotein B serum levels were determined at specified time points (day 0, 3, 6, 15, 24 and 33) by Anilytics, Md., with the following methodology. A 17 μL aliquot of the sample (no preparation) was used for analysis with a Hitachi 717 Analyzer using a 6 points standard curve. If the initial value of the sample was higher than the standard curve linearity, then the sample was diluted and repeated with the result multiplied by the appropriate dilution factor. The reagents for the assay (APO-B Reagent Kit #86071, Antibody Set #86060, Control Set #86103) were obtained from DiaSorin (Stillwater, Minn.).
A statistical model that considers baseline as a covariate and treatment group as a fixed effect was fit to the log transformed response at each time point for LDL-C, HDL-C, TC, and triglycerides. Tukey's multiple comparison correction was applied to adjust the pair wise comparisons at each time point. The statistical significance was evaluated at alpha=0.05 using adjusted p-values.

PCSK9 [3] = target: T1, PCSK9; assay: 12 week dose-ranging study in combination with statins (Example 25); type: in vivo; details: on statin, preliminary
Description: Randomization will be stratified by screening LDL-C level (<130 mg/dL [3.4 mmol/L] vs ≥130 mg/dL) and ezetimibe use at baseline (yes vs no). Randomization should occur within 5-10 days of the screening LDL-C evaluation used to determine eligibility. Study visits are every 2 weeks, irrespective whether the subject receives Q2W SC or Q4W treatment. […] The end-of-study visit and the last estimation of lipids is at week 12 for subjects on Q4W IP schedule and week 14 for subjects on Q2W IP schedule.
Males and females, ≥18 to ≤80 years of age, are eligible for this study. For enrollment,
subjects must be on a statin, with or without ezetimibe, with stable dose(s) for at least 4 weeks before LDL-C screening and not requiring uptitration. Fasting LDL-C at screening must be ≥85 mg/dL (2.2 mmol/L). Enrollment of subjects with screening fasting LDL-C between ≥85 mg/dL (2.2 mmol/L) and <100 mg/dL (2.6 mmol/L) will be limited to no more than approximately 20% of total planned enrollment. Fasting triglycerides must be ≤400 mg/dL (4.5 mmol/L) as determined by the central laboratory analysis at screening.

human PCSK9 = target: T2, human PCSK9 (Homo sapiens, UniProt Q8NBP7, E620G/G670E/V474I); assay: BIAcore solution equilibrium binding assay; details: hPCSK9, solution equilibrium
T2 construct: made in house
T2 sequence (Q8NBP7 153-692 V474I/E620G/G670E): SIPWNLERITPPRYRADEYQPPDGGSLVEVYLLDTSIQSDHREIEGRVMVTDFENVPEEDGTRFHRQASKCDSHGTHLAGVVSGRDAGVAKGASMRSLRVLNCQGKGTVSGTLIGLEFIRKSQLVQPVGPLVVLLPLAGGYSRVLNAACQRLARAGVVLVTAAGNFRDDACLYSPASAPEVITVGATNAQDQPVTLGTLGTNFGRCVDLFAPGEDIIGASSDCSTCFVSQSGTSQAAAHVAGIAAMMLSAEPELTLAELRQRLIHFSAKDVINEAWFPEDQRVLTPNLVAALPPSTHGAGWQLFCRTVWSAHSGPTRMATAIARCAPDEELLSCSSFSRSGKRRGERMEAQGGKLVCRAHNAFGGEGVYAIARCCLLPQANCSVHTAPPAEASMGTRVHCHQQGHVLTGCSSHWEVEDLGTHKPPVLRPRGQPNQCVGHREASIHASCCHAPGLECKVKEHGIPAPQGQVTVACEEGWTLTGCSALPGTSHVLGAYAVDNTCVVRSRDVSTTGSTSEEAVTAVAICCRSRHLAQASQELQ
From the text: Flow cell 3 was used as a background control. […] Although cPCSK9 has lower protein concentration observed from KinExA assay and SDS-gel, its concentration was not adjusted here since the concentration of cPCSK9 was not used for calculation of KD. […] FIG. 5B depicts the results from the solution equilibrium assay at three different hPCSK9 concentrations for hPCSK9. FIG. 5C depicts a similar set of results for mPCSK9. FIG. 5D depicts the results from the above biacore capture assay.

[4] = 70 mg Q2W SC, end of dosing interval
[5] = 105 mg Q2W SC, end of dosing interval
[6] = 280 mg (Q2W as printed) SC, end of dosing interval
[7] = 350 mg (Q2W as printed) SC, end of dosing interval

T1 sequence (Q8NBP7 153-692): as the sequence (Q8NBP7 153-692 V474I/E620G/G670E) above, with I322V, G468E, E518G counted along it

B1: 21B12: human anti-PCSK9 monoclonal antibody, light/heavy variable region SEQ ID NO 23/49 (antibody, listed as Homo sapiens, V domains shown)
VH: QVQLVQSGAEVKKPGASVKVSCKASGYTLTSYGISWVRQAPGQGLEWMGWVSFYNGNTNYAQKLQGRGTMTTDPSTSTAYMELRSLRSDDTAVYYCARGYGMDVWGQGTTVTVSS
VL: QSALTQPASVSGSPGQSITISCTGTSSDVGGYNSVSWYQQHPGKAPKLMIYEVSNRPSGVSNRFSGSKSGNTASLTISGLQAEDEADYYCNSYTSTSMVFGGGTKLTVL
PCSK9 [1]; 140 mg Q2W
  reduction from baseline in LDL-C at week 12: ~60%
PCSK9 [1]; 420 mg Q4W
  reduction from baseline in LDL-C at week 12: ~56%
PCSK9 [1]; p values<0.001
  dose dependent reduction from baseline in ApoB: 36-53%
  dose dependent reduction from baseline in non-HDL-C: 36-53%
  dose dependent reduction from baseline in total cholesterol: 25-37%
PCSK9 [2]
  LDL-C returned to levels similar to control animals: ≤ 6 days
  TC returned to levels similar to control animals: ≤ 4 days
  maximal LDL-C lowering as compared to control animals: 64%
  maximal TC lowering as compared to control animals: 20%
  maximal lowering of LDL-C vs anti-KLH IgG2 control at the same time point (change): −64%
  serum HDL-C vs anti-KLH IgG2 control: statistically significant change in HDL-C at a single time point (day 18 following injection); also recorded: lowered HDL-C at a single time point, 18 days after injection
  time of maximal LDL-C lowering after injection: 3 days
  time of maximal TC lowering after injection: 3 days
  triglycerides levels vs anti-KLH IgG2 control: No statistically significant changes
PCSK9 [2]; days 3, 6, 15, 24 and 33
  serum ApoB vs anti-KLH IgG2 control: statistically significant lower ApoB levels at day 3 only
PCSK9 [3]; [4]
  LS mean percent increase from baseline in HDL-C: 21.17%
  LS mean percent reduction from baseline in LDL-C: 39.22%
  LS mean percent reduction from baseline in Lp(a): 21.17%
  LS mean percent reduction from baseline in VLDL-C: 14.84%
  LS mean percent reduction from baseline in non-HDL-C: 36.20%
  LS mean percent reduction from baseline in total cholesterol: 26.33%
  LS mean percent reduction from baseline in triglycerides: 7.20%
PCSK9 [3]; [5]
  LS mean percent increase from baseline in HDL-C: 6.80%
  LS mean percent reduction from baseline in LDL-C: 56.38%
  LS mean percent reduction from baseline in Lp(a): 33.41%
  LS mean percent reduction from baseline in VLDL-C: 12.75%
  LS mean percent reduction from baseline in non-HDL-C: 51.20%
  LS mean percent reduction from baseline in total cholesterol: 36.91%
  LS mean percent reduction from baseline in triglycerides: 5.65%
PCSK9 [3]; 140 mg Q2W SC
  LS mean percent increase from baseline in HDL-C: 8.43%
  LS mean percent reduction from baseline in LDL-C: 68.76%
  LS mean percent reduction from baseline in Lp(a): 33.87%
  LS mean percent reduction from baseline in VLDL-C: 45.14%
  LS mean percent reduction from baseline in non-HDL-C: 64.61%
  LS mean percent reduction from baseline in total cholesterol: 46.17%
  LS mean percent reduction from baseline in triglycerides: 17.60%
PCSK9 [3]; [6]
  LS mean percent increase from baseline in HDL-C: 2.17%
  LS mean percent reduction from baseline in Lp(a): 22.54%
  LS mean percent reduction from baseline in VLDL-C: 18.12%
  LS mean percent reduction from baseline in non-HDL-C: 38.89%
  LS mean percent reduction from baseline in total cholesterol: 28.08%
  LS mean percent reduction from baseline in triglycerides: 6.75%
PCSK9 [3]; 280 mg (Q4W) SC, end of dosing interval
  LS mean percent reduction from baseline in LDL-C: 42.62%
PCSK9 [3]; [7]
  LS mean percent increase from baseline in HDL-C: 6.92%
  LS mean percent reduction from baseline in Lp(a): 29.43%
  LS mean percent reduction from baseline in VLDL-C: 20.89%
  LS mean percent reduction from baseline in non-HDL-C: 50.83%
  LS mean percent reduction from baseline in total cholesterol: 36.04%
  LS mean percent reduction from baseline in triglycerides: 9.17%
PCSK9 [3]; 350 mg SC, end of dosing interval
  LS mean percent reduction from baseline in LDL-C: 56.84%
PCSK9 [3]; 420 mg (Q2W as printed) SC
  LS mean percent increase from baseline in HDL-C: 7.42%
  LS mean percent reduction from baseline in Lp(a): 23.29%
  LS mean percent reduction from baseline in VLDL-C: 28.66%
  LS mean percent reduction from baseline in non-HDL-C: 48.54%
  LS mean percent reduction from baseline in total cholesterol: 42.76%
  LS mean percent reduction from baseline in triglycerides: 11.13%
PCSK9 [3]; 420 mg SC
  LS mean percent reduction from baseline in LDL-C: 52.19%
Human PCSK9
  Kd: 15 pM

— US12612465B2, “Formulations comprising PCSK9 specific monoclonal antibodies” (Amgen Inc., priority 2012, dated 2026)
